The results in this text go back to patent US5763593.

For this assay, the target named is TATA-binding protein (Saccharomyces cerevisiae (strain ATCC 204508 / S288c) (Baker's yeast)) (UniProt P13393).

“purified yeast NC2 (DRAP1/Dr1) with epitope-tagged (FLAG) NC2α/DRAP1 subunit” gave an amount required for 50% inhibition of in vitro transcription by RNA polymerase II holoenzyme of 0.5 pmol.
